The text below walks through data of paper doi:10.1101/2023.11.29.569239.

Where only a bound is given, the exact number is not on record here.

One series deals with MBP-ΔΔ DDX3Y (UniProt O15523 130-605). The series is described as follows: EMSA. Background: A gel shift assay detects complexes by their altered migration in electrophoresis.
A further series deals with MBP-ΔΔ DDX3X (UniProt O00571 132-607). In words: EMSA.
For series [1], the target named is T1, MBP-DDX3X full-length (UniProt O00571 1-662). The series is described as follows: single-particle FRET.
T1 sequence (O00571 whole entry): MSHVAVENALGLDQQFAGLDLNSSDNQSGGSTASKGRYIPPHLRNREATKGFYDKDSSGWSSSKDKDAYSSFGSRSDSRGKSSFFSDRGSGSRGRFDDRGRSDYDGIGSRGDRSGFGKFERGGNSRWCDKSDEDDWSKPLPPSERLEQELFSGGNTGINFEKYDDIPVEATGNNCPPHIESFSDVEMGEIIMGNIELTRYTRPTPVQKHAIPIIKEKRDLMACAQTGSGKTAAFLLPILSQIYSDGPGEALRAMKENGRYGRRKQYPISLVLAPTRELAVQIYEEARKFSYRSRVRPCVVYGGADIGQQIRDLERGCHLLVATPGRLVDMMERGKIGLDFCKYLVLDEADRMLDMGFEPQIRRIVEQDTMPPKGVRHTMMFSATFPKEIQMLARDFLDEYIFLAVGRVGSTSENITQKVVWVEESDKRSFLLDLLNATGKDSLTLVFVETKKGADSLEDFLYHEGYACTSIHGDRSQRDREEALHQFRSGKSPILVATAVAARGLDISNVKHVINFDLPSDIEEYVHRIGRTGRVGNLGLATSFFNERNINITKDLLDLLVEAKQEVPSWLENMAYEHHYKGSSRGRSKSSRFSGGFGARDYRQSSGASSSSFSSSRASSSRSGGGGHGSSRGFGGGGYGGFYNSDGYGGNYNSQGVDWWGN
Series [2] addresses T2, MBP-DDX3Y full-length (UniProt O15523 1-660). The series is described as follows: single-particle FRET.
The target in series [3] is T1, MBP-DDX3X full-length. The series is described as follows: EMSA.
Series [4] addresses T2, MBP-DDX3Y full-length. The series is described as follows: EMSA.

A word on the Kd: it is the constant that tells how readily two partners part at equilibrium. Low readings indicate a tighter complex, high ones a looser complex.

T2 sequence (O15523 whole entry): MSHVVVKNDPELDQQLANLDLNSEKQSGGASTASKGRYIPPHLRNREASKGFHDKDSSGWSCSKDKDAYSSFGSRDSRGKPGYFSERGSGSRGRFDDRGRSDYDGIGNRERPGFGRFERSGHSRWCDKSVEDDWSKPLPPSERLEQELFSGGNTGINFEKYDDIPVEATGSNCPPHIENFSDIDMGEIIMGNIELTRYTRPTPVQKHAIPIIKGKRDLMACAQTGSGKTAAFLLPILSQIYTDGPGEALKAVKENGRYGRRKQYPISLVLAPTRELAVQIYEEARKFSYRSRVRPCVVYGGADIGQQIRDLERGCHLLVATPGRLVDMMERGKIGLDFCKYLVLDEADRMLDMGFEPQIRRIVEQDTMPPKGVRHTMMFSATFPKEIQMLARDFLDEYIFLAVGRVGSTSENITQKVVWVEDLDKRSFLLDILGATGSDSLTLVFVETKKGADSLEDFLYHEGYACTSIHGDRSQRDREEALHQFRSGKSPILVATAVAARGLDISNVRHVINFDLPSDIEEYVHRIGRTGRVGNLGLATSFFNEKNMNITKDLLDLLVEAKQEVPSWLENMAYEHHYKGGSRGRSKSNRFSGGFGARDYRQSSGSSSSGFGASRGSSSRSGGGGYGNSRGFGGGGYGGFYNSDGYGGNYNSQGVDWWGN
Chain of MBP-ΔΔ DDX3X (O00571 132-607, stated change not applied): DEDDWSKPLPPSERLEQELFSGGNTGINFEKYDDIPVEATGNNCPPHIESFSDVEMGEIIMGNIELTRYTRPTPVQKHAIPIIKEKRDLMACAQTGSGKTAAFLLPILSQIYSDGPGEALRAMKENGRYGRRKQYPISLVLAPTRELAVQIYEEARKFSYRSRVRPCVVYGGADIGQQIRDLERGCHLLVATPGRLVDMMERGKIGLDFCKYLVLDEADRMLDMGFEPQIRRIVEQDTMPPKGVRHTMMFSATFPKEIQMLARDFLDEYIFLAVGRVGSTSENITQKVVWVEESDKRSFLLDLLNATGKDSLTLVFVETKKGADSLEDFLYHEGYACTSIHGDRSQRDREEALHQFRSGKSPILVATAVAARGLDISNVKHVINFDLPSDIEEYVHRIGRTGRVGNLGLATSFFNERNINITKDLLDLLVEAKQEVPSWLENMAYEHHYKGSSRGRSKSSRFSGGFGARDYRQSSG
Chain of MBP-ΔΔ DDX3Y (O15523 130-605, stated change not applied): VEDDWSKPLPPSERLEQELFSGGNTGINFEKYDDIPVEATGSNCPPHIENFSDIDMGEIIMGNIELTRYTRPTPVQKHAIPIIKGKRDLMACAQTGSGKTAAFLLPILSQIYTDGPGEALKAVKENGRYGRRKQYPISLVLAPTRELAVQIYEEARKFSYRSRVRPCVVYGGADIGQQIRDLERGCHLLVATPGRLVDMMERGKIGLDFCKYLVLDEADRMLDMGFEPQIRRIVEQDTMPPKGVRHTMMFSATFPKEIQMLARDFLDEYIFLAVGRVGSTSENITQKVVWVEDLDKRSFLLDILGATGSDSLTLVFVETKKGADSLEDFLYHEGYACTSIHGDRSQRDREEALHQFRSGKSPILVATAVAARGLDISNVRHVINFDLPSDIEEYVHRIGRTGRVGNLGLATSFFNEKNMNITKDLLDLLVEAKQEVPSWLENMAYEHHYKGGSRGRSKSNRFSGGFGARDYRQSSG

B1: dsRNA I (18-mer/42-mer) (dsRNA)
RNA 1: ACCGCUGCCGUCGCUCCG
RNA 2: UUUUUUUUUUUUUUUUUUUUUUUUCGGAGCGACGGCAGCGGU
For B1, the binding signal in the series with MBP-ΔΔ DDX3Y and with MBP-ΔΔ DDX3X was > 3 fold Kd increase vs full-length throughout. Moreover, the “apparent K (half saturation)” value amounted to 4.1 ± 2 µM with MBP-DDX3X full-length [1] and 3.7 ± 3 µM with MBP-DDX3Y full-length [2]. Also, the results for the dissociation constant Kd with MBP-DDX3X full-length [3] and in the series with MBP-DDX3Y full-length [4] were 519 nM and 884 nM, respectively.
